B1: Protein maelstrom homolog, residues 3 to 71; numbered along this chain, Q96JY0 (parent)
chain: NRKASRNAYYFFVQEKIPELRRRGLPVARVADAIPYCSSDWALLREEEKEKYAEMAREWRAAQGKDPGP

± gives the uncertainty stated by the source.

The data set covers variants of B1. In words: abundance fitness (aPCA) (normalised: wild type 0, dead -1); higher = more abundant; growth selection in yeast, the domain comes from the species named. As to conditions: Homo sapiens.
For NRKASRNAYYFFVQEKIPELRRRGLPVARVADAIPYCSSNWALLREEEKEKYAEMAREWRAAQGKDPGP [D40N], the abundance fitness was -0.007 ± 0.16.

Regarding NRKASRNAYYFFVQEKIPELRRRGLPVARVADAIPYCSSYWALLREEEKEKYAEMAREWRAAQGKDPGP [D40Y], the abundance fitness was -0.48 ± 0.36.

As for NRKASRNAYYFFVQEKIPELRRRGLPVARVADAIPYCSSGWALLREEEKEKYAEMAREWRAAQGKDPGP [D40G], the abundance fitness is -0.856 ± 0.44.

In the case of NRKASRNAYYFFVQEKIPELRRRGLPVARVADAIPYCSSVWALLREEEKEKYAEMAREWRAAQGKDPGP [D40V], the abundance fitness was -0.036 ± 0.2.

For the variant NRKASRNAYYFFVQEKIPELRRRGLPVARVADAIPYCSSDWALMREEEKEKYAEMAREWRAAQGKDPGP [L44M], the abundance fitness was -0.38 ± 0.13.

For NRKASRNAYYFFVQEKIPELRRRGLPVARVADAIPYCSSDWALDREEEKEKYAEMAREWRAAQGKDPGP [L44D], the abundance fitness was -0.553 ± 0.23.

As for NRKASRNAYYFFVQEKIPELRRRGLPVARVADAIPYCSSDWALIREEEKEKYAEMAREWRAAQGKDPGP [L44I], the abundance fitness was -0.482 ± 0.21.

For the variant NRKASRNAYYFFVQEKIPELRRRGLPVARVADAIPYCSSDWALEREEEKEKYAEMAREWRAAQGKDPGP [L44E], the abundance fitness is -0.421 ± 0.14.

With NRKASRNAYYFFVQEKIPELRRRGLPVARVADAIPYCSSDWALHREEEKEKYAEMAREWRAAQGKDPGP [L44H], the abundance fitness is -1 ± 0.32.

NRKASRNAYYFFVQEKIPELRRRGLPVARVADAIPYCSSDWALKREEEKEKYAEMAREWRAAQGKDPGP [L44K]: the abundance fitness is -0.568 ± 0.28.

NRKASRNAYYFFVQEKIPELRRRGLPVARVADAIPYCSSDWALCREEEKEKYAEMAREWRAAQGKDPGP [L44C]: the abundance fitness is -0.343 ± 0.17.

Regarding NRKASRNAYYFFVQEKIPELRRRGLPVARVADAIPYCSSDWALAREEEKEKYAEMAREWRAAQGKDPGP [L44A], the abundance fitness was -0.254 ± 0.048.

Consider NRKASRNAYYFFVQEKIPELRRRGLPVARVADAIPYCSSDWALGREEEKEKYAEMAREWRAAQGKDPGP [L44G], for which the abundance fitness is -0.864 ± 0.17.

Consider NRKASRNAYYFFVQEKIPELRRRGLPVARVADAIPYCSSDWALFREEEKEKYAEMAREWRAAQGKDPGP [L44F], for which the abundance fitness was -0.443 ± 0.18.

In the case of NRKASRNAYYFFVQEKIPELRRRGLPVARVADAIPYCSSDWSLLREEEKEKYAEMAREWRAAQGKDPGP [A42S], the abundance fitness stood at 0 ± 0.067.

On to NRKASRNAYYFFVQEKIPELRRRGLPVARVADAIPYCSSDWFLLREEEKEKYAEMAREWRAAQGKDPGP [A42F], for which the abundance fitness was -0.081 ± 0.12.

With NRKASRNAYYFFVQEKIPELRRRGLPVARVADAIPYCSSDWHLLREEEKEKYAEMAREWRAAQGKDPGP [A42H], the abundance fitness is -0.03 ± 0.12.

For NRKASRNAYYFFVQEKIPELRRRGLPVARVADAIPYCSSDWRLLREEEKEKYAEMAREWRAAQGKDPGP [A42R], the abundance fitness was -0.059 ± 0.051.

Regarding NRKASRNAYYFFVQEKIPELRRRGLPVARVADAIPYCSSDWCLLREEEKEKYAEMAREWRAAQGKDPGP [A42C], the abundance fitness is -0.177 ± 0.07.

For NRKASRNAYYFFVQEKIPELRRRGLPVARVADAIPYCSSDWDLLREEEKEKYAEMAREWRAAQGKDPGP [A42D], the abundance fitness is 0.015 ± 0.15.

As for NRKASRNAYYFFVQEKIPELRRRGLPVARVADAIPYCSSDWYLLREEEKEKYAEMAREWRAAQGKDPGP [A42Y], the abundance fitness was -0.101 ± 0.1.

On to NRKASRNAYYFFVQEKIPELRRRGLPVARVADAIPYCSSDWLLLREEEKEKYAEMAREWRAAQGKDPGP [A42L], for which the abundance fitness is -0.082 ± 0.061.

On to NRKASRNAYYFFVQEKIPELRRRGLPVARVADAIPYCSSDWNLLREEEKEKYAEMAREWRAAQGKDPGP [A42N], for which the abundance fitness came to 0.157 ± 0.11.

Regarding NRKASRNAYYFFVQEKIPELRRRGLPVARVADAIPYCSSDWWLLREEEKEKYAEMAREWRAAQGKDPGP [A42W], the abundance fitness is -0.236 ± 0.062.

For the variant NRKASRNAYYFFVQEKIPELRRRGLPVARVADAIPYCSSDWQLLREEEKEKYAEMAREWRAAQGKDPGP [A42Q], the abundance fitness is -0.147 ± 0.071.

For the variant NRKASRNAYYFFVQEKIPELRRRGLPVARVADAIPYCSSDWKLLREEEKEKYAEMAREWRAAQGKDPGP [A42K], the abundance fitness came to 0.016 ± 0.084.

Regarding NRKASRNAYYFFVQEKIPELRRRGLPVARVADAIPYCSSDWMLLREEEKEKYAEMAREWRAAQGKDPGP [A42M], the abundance fitness is -0.083 ± 0.08.

Turning to NRKASRNAYYFFVQEKIPELRRRGLPVARVADAIPYCSSDWPLLREEEKEKYAEMAREWRAAQGKDPGP [A42P], the abundance fitness is -0.326 ± 0.071.

As for NRKASRNAYYFFVQEKIPELRRRGLPVARVADAIPYCSSDWGLLREEEKEKYAEMAREWRAAQGKDPGP [A42G], the abundance fitness came to 0.058 ± 0.051.

Consider NRKASRNAYYFFVQEKIPELRRRGLPVARVADAIPYCSSDWILLREEEKEKYAEMAREWRAAQGKDPGP [A42I], for which the abundance fitness is -0.234 ± 0.27.

As for NRKASRNAYYFFVQEKIPELRRRGLPVARVADAIPYCSSDWELLREEEKEKYAEMAREWRAAQGKDPGP [A42E], the abundance fitness came to 0.005 ± 0.075.

For the variant NRKASRNAYYFFVQEKIPELRRRGLPVARVADAIPYCSGDWALLREEEKEKYAEMAREWRAAQGKDPGP [S39G], the abundance fitness turned out to be 0.13 ± 0.054.

For the variant NRKASRNAYYFFVQEKIPELRRRGLPVARVADAIPYCSFDWALLREEEKEKYAEMAREWRAAQGKDPGP [S39F], the abundance fitness was -0.016 ± 0.16.

Regarding NRKASRNAYYFFVQEKIPELRRRGLPVARVADAIPYCSWDWALLREEEKEKYAEMAREWRAAQGKDPGP [S39W], the abundance fitness was found to be 0.022 ± 0.067.

Consider NRKASRNAYYFFVQEKIPELRRRGLPVARVADAIPYCSYDWALLREEEKEKYAEMAREWRAAQGKDPGP [S39Y], for which the abundance fitness was 0.041 ± 0.11.

For NRKASRNAYYFFVQEKIPELRRRGLPVARVADAIPYCSMDWALLREEEKEKYAEMAREWRAAQGKDPGP [S39M], the abundance fitness was determined as 0.129 ± 0.074.

In the case of NRKASRNAYYFFVQEKIPELRRRGLPVARVADAIPYCSLDWALLREEEKEKYAEMAREWRAAQGKDPGP [S39L], the abundance fitness is -0.137 ± 0.061.

For NRKASRNAYYFFVQEKIPELRRRGLPVARVADAIPYCSHDWALLREEEKEKYAEMAREWRAAQGKDPGP [S39H], the abundance fitness worked out at 0.109 ± 0.11.

NRKASRNAYYFFVQEKIPELRRRGLPVARVADAIPYCSPDWALLREEEKEKYAEMAREWRAAQGKDPGP [S39P]: the abundance fitness is 0.093 ± 0.089.

These data come from the Human Domainome abundance scans (Beltran et al. 2025).
